Our source for the stoichiometry N (monomers per cage) values is article PMC7588467.

The experiment addresses OP protein cage. Description: cryo-EM structure; OP cages empty, with SDS (800 equiv.) or with SDS:CS, in TSEC buffer; octahedral symmetry imposed; rigid-body fit of the OP crystal structure (PDB 6FDB).

Turning to OP protein cage, the stoichiometry N (monomers per cage) was found to be 24.
